According to publication PMC2141715:
Where two headings read alike, the source gives them in different places.

Tests used:
Assay in all cases: co-IP
[1] = target: calnexin (canine pancreas microsomes) (dog (endogenous in canine pancreas microsomes)) (UniProt P24643)
[2] = target: calreticulin (canine pancreas microsomes) (dog (endogenous in canine pancreas microsomes)) (UniProt P28490)
[3] = target: calnexin (canine pancreas microsomes) (dog (endogenous in canine pancreas microsomes)) (UniProt P24643); remark: listed apart in the source
[4] = target: calreticulin (canine pancreas microsomes) (dog (endogenous in canine pancreas microsomes)) (UniProt P28490); remark: listed apart in the source

Sequence of UniProt P24643 (P24643 21-593): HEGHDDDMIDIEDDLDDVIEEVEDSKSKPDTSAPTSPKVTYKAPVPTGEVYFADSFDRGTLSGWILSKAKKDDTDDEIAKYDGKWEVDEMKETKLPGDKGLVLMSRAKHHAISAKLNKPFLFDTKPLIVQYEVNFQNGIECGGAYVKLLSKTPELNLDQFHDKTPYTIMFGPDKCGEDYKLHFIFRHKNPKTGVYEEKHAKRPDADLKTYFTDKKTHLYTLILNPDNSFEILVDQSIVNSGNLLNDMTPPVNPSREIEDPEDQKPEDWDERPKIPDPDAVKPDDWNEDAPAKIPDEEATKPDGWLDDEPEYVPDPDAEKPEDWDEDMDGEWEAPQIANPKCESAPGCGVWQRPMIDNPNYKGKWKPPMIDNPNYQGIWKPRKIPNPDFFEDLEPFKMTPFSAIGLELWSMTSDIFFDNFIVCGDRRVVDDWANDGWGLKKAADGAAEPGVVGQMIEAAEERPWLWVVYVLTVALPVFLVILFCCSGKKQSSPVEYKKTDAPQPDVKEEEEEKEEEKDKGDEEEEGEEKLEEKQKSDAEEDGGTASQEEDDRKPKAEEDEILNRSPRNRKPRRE

Substance	percent of HA coprecipitated [1] [%]	percent of HA coprecipitated [2] [%]	binding ratio of the IT2 form (IT1 = 1.0, normalised to anti-HA precipitations) [3]	binding ratio of the NT form (IT1 = 1.0, normalised to anti-HA precipitations) [3]	percent of HA in calnexin–HA complexes without calreticulin [3] [%]	percent of HA in ternary complexes with m2 and m3 [3] [%]	binding ratio of the IT2 form (IT1 = 1.0, normalised to anti-HA precipitations) [4]	binding ratio of the NT form (IT1 = 1.0, normalised to anti-HA precipitations) [4]	percent of HA coprecipitated [4] [%]	percent of HA in calreticulin–HA complexes without calnexin [4] [%]	percent of HA in ternary complexes with m2 and m3 [4] [%]
influenza virus hemagglutinin (HA), wild type, X31 (natural protein)	82	50	0.65	0.63	8	40	0.57	0.16	45	10	40
anchor-free, truncated, soluble form of HA (domain or fragment)	54	50	–	–	–	–	–	–	–	–	–
